# Measured values published in patent US20100015130.
# What was measured:
# [1] = target: T1, GST-tagged mouse DISC1 fragment 1-220aa (UniProt Q811T9)
# T1 sequence: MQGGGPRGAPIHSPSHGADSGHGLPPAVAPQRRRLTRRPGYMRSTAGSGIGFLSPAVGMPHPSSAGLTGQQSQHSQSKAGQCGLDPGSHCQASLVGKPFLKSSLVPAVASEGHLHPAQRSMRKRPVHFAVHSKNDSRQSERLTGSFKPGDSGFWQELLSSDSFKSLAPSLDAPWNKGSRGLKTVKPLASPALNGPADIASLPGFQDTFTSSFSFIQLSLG
# [2] = target: T2, GST-tagged mouse DISC1 fragment 356-595aa (UniProt Q811T9)
# T2 sequence: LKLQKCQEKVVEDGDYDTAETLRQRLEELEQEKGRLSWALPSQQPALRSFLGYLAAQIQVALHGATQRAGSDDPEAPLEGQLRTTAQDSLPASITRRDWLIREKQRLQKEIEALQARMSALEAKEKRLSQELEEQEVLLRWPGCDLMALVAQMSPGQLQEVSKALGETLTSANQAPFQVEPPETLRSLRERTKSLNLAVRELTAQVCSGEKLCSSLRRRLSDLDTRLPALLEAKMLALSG
# [3] = target: T3, GST-tagged mouse DISC1 fragment 596-852aa (UniProt Q811T9)
# T3 sequence: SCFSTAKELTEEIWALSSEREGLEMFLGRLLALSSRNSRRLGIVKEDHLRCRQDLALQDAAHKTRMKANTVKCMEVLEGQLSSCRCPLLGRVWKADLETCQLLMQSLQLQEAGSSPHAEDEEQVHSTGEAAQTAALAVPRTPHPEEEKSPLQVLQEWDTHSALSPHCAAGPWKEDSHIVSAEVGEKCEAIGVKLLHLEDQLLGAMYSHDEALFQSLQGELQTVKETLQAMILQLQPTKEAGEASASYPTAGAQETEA
# [4] = target: T4, GST-tagged mouse DISC1 fragment 221-355aa (UniProt Q811T9)
# T4 sequence: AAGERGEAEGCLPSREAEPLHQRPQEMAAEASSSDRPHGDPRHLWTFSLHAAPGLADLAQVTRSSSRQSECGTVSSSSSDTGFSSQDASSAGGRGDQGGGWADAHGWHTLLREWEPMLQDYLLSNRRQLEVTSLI
substance,measurement,setting,value
"GST-GSK3β (recombinant, Active Motif)","GSK3β Y216 phosphorylation, dose response in vitro",[1],no inhibition of GSK3β Y216 phosphorylation was observed at 0.1 µM and the inhibition of phosphorylation plateaued at 1 µM
same,"in vitro kinase assay: GST-β-catenin phosphorylation, GST-axin phosphorylation and GSK3β autophosphorylation at Y216",[1],"potently inhibited β-catenin, axin and GSK3β phosphorylation at 0.5 µM"
same,"GSK3β autophosphorylation (Y216), in vitro kinase assay",[2],"at higher concentrations (2 µM), DISC1 fragments spanning 221-355 and 356-595 started to inhibit GSK3β autophosphorylation"
same,"in vitro kinase assay: GST-β-catenin phosphorylation, GST-axin phosphorylation and GSK3β autophosphorylation at Y216",[2],"none of the other 3 DISC1 fragments, GST-p25, or GST-CASK proteins inhibited GSK3β activity at this concentration (0.5 µM)"
same,"in vitro kinase assay: GST-β-catenin phosphorylation, GST-axin phosphorylation and GSK3β autophosphorylation at Y216",[3],"none of the other 3 DISC1 fragments, GST-p25, or GST-CASK proteins inhibited GSK3β activity at this concentration (0.5 µM)"
same,"GSK3β autophosphorylation (Y216), in vitro kinase assay",[4],"at higher concentrations (2 µM), DISC1 fragments spanning 221-355 and 356-595 started to inhibit GSK3β autophosphorylation"
same,"in vitro kinase assay: GST-β-catenin phosphorylation, GST-axin phosphorylation and GSK3β autophosphorylation at Y216",[4],"none of the other 3 DISC1 fragments, GST-p25, or GST-CASK proteins inhibited GSK3β activity at this concentration (0.5 µM)"
